Results published in ChEMBL document CHEMBL2073889, “ATP-dependent transport of beta-estradiol 17-(beta-D-glucuronide) in rat canalicular membrane vesicles” (Am J Physiol, 1996).

Substrate: C[C@]12CC[C@@H]3c4ccc(O)cc4CC[C@H]3[C@@H]1CC[C@@H]2O[C@@H]1O[C@H](C(=O)O)[C@@H](O)[C@H](O)[C@H]1O
Assay: TP_TRANSPORTER: uptake in bile canalicular membrane vesicles from SD rat
Type: functional, cell membranes, Sprague-Dawley, Bile canalicular membrane vesicle

B1: ATP-binding cassette sub-family C member 2 (Rattus norvegicus) (protein)
chain: MDKFCNSTFWDLSLLESPEADLPLCFEQTVLVWIPLGFLWLLAPWQLYSVYRSRTKRSSITKFYLAKQVFVVFLLILAAIDLSLALTEDTGQATVPPVRYTNPILYLCTWLLVLAVQHSRQWCVRKNSWFLSLFWILSVLCGVFQFQTLIRALLKDSKSNMAYSYLFFVSYGFQIVLLILTAFSGPSDSTQTPSVTASFLSSITFSWYDRTVLKGYKHPLTLEDVWDIDEGFKTRSVTSKFEAAMTKDLQKARQAFQRRLQKSQRKPEATLHGLNKKQSQSQDVLVLEEAKKKSEKTTKDYPKSWLIKSLFKTFHVVILKSFILKLIHDLLVFLNPQLLKLLIGFVKSSNSYVWFGYICAILMFAVTLIQSFCLQSYFQHCFVLGMCVRTTVMSSIYKKALTLSNLARKQYTIGETVNLMSVDSQKLMDATNYMQLVWSSVIQITLSIFFLWRELGPSILAGVGVMVLLIPVNGVLATKIRNIQVQNMKNKDKRLKIMNEILSGIKILKYFAWEPSFQEQVQGIRKKELKNLLRFGQLQSLLIFILQITPILVSVVTFSVYVLVDSANVLNAEKAFTSITLFNILRFPLSMLPMVTSSILQASVSVDRLERYLGGDDLDTSAIRRVSNFDKAVKFSEASFTWDPDLEATIQDVNLDIKPGQLVAVVGTVGSGKSSLVSAMLGEMENVHGHITIQGSTAYVPQQSWIQNGTIKDNILFGSEYNEKKYQQVLKACALLPDLEILPGGDMAEIGEKGINLSGGQKQRVSLARAAYQDADIYILDDPLSAVDAHVGKHIFNKVVGPNGLLAGKTRIFVTHGIHFLPQVDEIVVLGKGTILEKGSYRDLLDKKGVFARNWKTFMKHSGPEGEATVNNDSEAEDDDDGLIPTMEEIPEDAASLAMRRENSLRRTLSRSSRSSSRRGKSLKNSLKIKNVNVLKEKEKEVEGQKLIKKEFVETGKVKFSIYLKYLQAVGWWSILFIILFYGLNNVAFIGSNLWLSAWTSDSDNLNGTNNSSSHRDMRIGVFGALGLAQGICLLISTLWSIYACRNASKALHGQLLTNILRAPMRFFDTTPTGRIVNRFSGDISTVDDLLPQTLRSWMMCFFGIAGTLVMICMATPVFAIIIIPLSILYISVQVFYVATSRQLRRLDSVTKSPIYSHFSETVTGLPIIRAFEHQQRFLAWNEKQIDINQKCVFSWITSNRWLAIRLELVGNLVVFCSALLLVIYRKTLTGDVVGFVLSNALNITQTLNWLVRMTSEAETNIVAVERISEYINVENEAPWVTDKRPPADWPRHGEIQFNNYQVRYRPELDLVLKGITCNIKSGEKVGVVGRTGAGKSSLTNCLFRILESAGGQIIIDGIDVASIGLHDLRERLTIIPQDPILFSGSLRMNLDPFNKYSDEEVWRALELAHLRSFVSGLQLGLLSEVTEGGDNLSIGQRQLLCLGRAVLRKSKILVLDEATAAVDLETDSLIQTTIRKEFSQCTVITIAHRLHTIMDSDKIMVLDNGKIVEYGSPEELLSNRGSFYLMAKEAGIENVNHTEL
  Km: 75 µM
